B1: Fragment a (-54 to -25) (dsDNA)
DNA 1: CACATGTACCCAGTGTTAACCTTCTAGTGC
DNA 2: GCACTAGAAGGTTAACACTGGGTACATGTG
B2: Fragment 1 (-53 to 0) (dsDNA)
DNA 1: CACATGTACCCAGTGTTAACCTTCTAGTGCACTAGAAGGTCAAGGGGAGTCGC
DNA 2: GCGACTCCCCTTGACCTTCTAGTGCACTAGAAGGTTAACACTGGGTACATGTG
B3: Fragment 2 (-103 to -54) (dsDNA)
DNA 1: GTATGGGCTCACCGAGATCAGGCTCGTCACGATCGCCCGCACTGCTGGCGGCT
DNA 2: AGCCGCCAGCAGTGCGGGCGATCGTGACGAGCCTGATCTCGGTGAGCCCATAC
B4: Fragment 4 (-203 to -154) (dsDNA)
DNA 1: GGATGGTCATAGTGGCGTCGGGCGCCAGGCCTGCGCGGGCACACGCGGTGCGG
DNA 2: CCGCACCGCGTGTGCCCGCGCAGGCCTGGCGCCCGACGCCACTATGACCATCC
B5: Fragment 3 (-153 to -104) (dsDNA)
DNA 1: TGTCGATGGTTGTTCTCATCTGGTAACTCCTTTCCGCAGGCCGCAATTCAGCG
DNA 2: CGCTGAATTGCGGCCTGCGGAAAGGAGTTACCAGATGAGAACAACCATCGACA
B6: Fragment b (-54 to -17) (dsDNA)
DNA 1: CACATGTACCCAGTGTTAACCTTCTAGTGCACTAGAAG
DNA 2: CTTCTAGTGCACTAGAAGGTTAACACTGGGTACATGTG
B7: Fragment c (-54 to -9) (dsDNA)
DNA 1: CACATGTACCCAGTGTTAACCTTCTAGTGCACTAGAAGGTCAAGGG
DNA 2: CCCTTGACCTTCTAGTGCACTAGAAGGTTAACACTGGGTACATGTG
B8: FAM-Fragment 1 (dsDNA)
DNA 1: B2 DNA 1
DNA 2: B2 DNA 2
B9: FAM-Fragment 3 (dsDNA)
DNA 1: B5 DNA 1
DNA 2: B5 DNA 2
B10: Fragment 5 (-40 to -10) (dsDNA)
DNA 1: GTTAACCTTCTAGTGCACTAGAAGGTCAAG
DNA 2: CTTGACCTTCTAGTGCACTAGAAGGTTAAC
B11: Fragment 6 (-73 to -40) (dsDNA)
DNA 1: CGCCCGCACTGCTGGCGGCTCACATGTACCCAGT
DNA 2: ACTGGGTACATGTGAGCCGCCAGCAGTGCGGGCG

For one data set, the target named is T1, Rv0081 (Mycobacterium tuberculosis H37Rv, UniProt P9WMI7 1-114).
T1 sequence: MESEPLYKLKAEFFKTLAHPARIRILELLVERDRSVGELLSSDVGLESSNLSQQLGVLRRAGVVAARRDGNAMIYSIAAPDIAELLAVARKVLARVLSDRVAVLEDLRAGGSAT
As to the kind of experiment: EMSA; 576 ng Rv0081. Particulars: protein: recombinant; tags: His-tag (pET28b); chain copies: 2; blunt. Background: A gel shift assay detects complexes by their altered migration in electrophoresis.
For B1, the binding result is recorded as “no binding”.

B2: the binding result is recorded as “binds”.

On to B3, for which the binding result is given as “no binding”.

For the molecule B4, the binding result is “no binding”.

Consider B5, for which the binding result is recorded as “binds”.

As for B6, the binding result is recorded as “no binding”.

B7: the binding result was “no binding”.

Another data set addresses T1, Rv0081. Put plainly: EMSA. Particulars: protein: recombinant; tags: His-tag (pET28b); chain copies: 2; label: FAM; blunt.
For the molecule B8, the binding result is on record as “binds”.

Consider B9, for which the binding result was “binds”.

The target of another data set is T1, Rv0081. As to the kind of experiment: EMSA; 288-576 ng Rv0081. Particulars: protein: recombinant; tags: His-tag (pET28b); chain copies: 2; blunt.
With B10, the binding result is “no binding”.

As to B11, the binding result is reported as “no binding”.

The values are drawn from article PMC6177252, “Transcription factors Rv0081 and Rv3334 connect the early and the enduring hypoxic response of Mycobacterium tuberculosis”.
